Legend:
[1] = molecular target: gp70 env protein of amphotropic MLV (4070A envelope), on purified viral particles (amphotropic murine leukemia virus (4070A envelope)); assay: ELISA on plate-bound MLV, dilution factor 10, Exp125-Ana Plate 1
[2] = molecular target: gp70 env protein of amphotropic MLV (4070A envelope), on purified viral particles (amphotropic murine leukemia virus (4070A envelope)); assay: ELISA on plate-bound MLV, dilution factor 10, Exp073-DTV Plate 1
[3] = molecular target: gp70 env protein of amphotropic MLV (4070A envelope), on purified viral particles (amphotropic murine leukemia virus (4070A envelope)); assay: ELISA on plate-bound MLV, dilution factor 156250, Exp073-DTV Plate 1
[4] = molecular target: gp70 env protein of amphotropic MLV (4070A envelope), on purified viral particles (amphotropic murine leukemia virus (4070A envelope)); assay: ELISA on plate-bound MLV, dilution factor 50, inter-assay mean of six experiments
[5] = molecular target: gp70 env protein of amphotropic MLV (4070A envelope), on purified viral particles (amphotropic murine leukemia virus (4070A envelope)); assay: ELISA on plate-bound MLV, dilution factor 10, Exp074-DTV Plate 1
[6] = molecular target: gp70 env protein of amphotropic MLV (4070A envelope), on purified viral particles (amphotropic murine leukemia virus (4070A envelope)); assay: ELISA on plate-bound MLV, dilution factor 781250, Exp122-Ana Plate 1
[7] = molecular target: gp70 env protein of amphotropic MLV (4070A envelope), on purified viral particles (amphotropic murine leukemia virus (4070A envelope)); assay: ELISA on plate-bound MLV, dilution factor 250, Exp125-Ana Plate 1
[8] = molecular target: gp70 env protein of amphotropic MLV (4070A envelope), on purified viral particles (amphotropic murine leukemia virus (4070A envelope)); assay: ELISA on plate-bound MLV, dilution factor 50, Exp072-DTV Plate 1
[9] = molecular target: gp70 env protein of amphotropic MLV (4070A envelope), on purified viral particles (amphotropic murine leukemia virus (4070A envelope)); assay: ELISA on plate-bound MLV, dilution factor 1250, Exp074-DTV Plate 1
[10] = molecular target: gp70 env protein of amphotropic MLV (4070A envelope), on purified viral particles (amphotropic murine leukemia virus (4070A envelope)); assay: ELISA on plate-bound MLV, dilution factor 250, Exp122-Ana Plate 2
[11] = molecular target: gp70 env protein of amphotropic MLV (4070A envelope), on purified viral particles (amphotropic murine leukemia virus (4070A envelope)); assay: ELISA on plate-bound MLV, dilution factor 6250, Exp073-DTV Plate 1
[12] = molecular target: gp70 env protein of amphotropic MLV (4070A envelope), on purified viral particles (amphotropic murine leukemia virus (4070A envelope)); assay: ELISA on plate-bound MLV, dilution factor 1250, Exp073-DTV Plate 2
[13] = molecular target: gp70 env protein of amphotropic MLV (4070A envelope), on purified viral particles (amphotropic murine leukemia virus (4070A envelope)); assay: ELISA on plate-bound MLV, dilution factor 6250, Exp073-DTV Plate 2
[14] = molecular target: gp70 env protein of amphotropic MLV (4070A envelope), on purified viral particles (amphotropic murine leukemia virus (4070A envelope)); assay: ELISA on plate-bound MLV, dilution factor 156250, Exp072-DTV Plate 2
[15] = molecular target: gp70 env protein of amphotropic MLV (4070A envelope), on purified viral particles (amphotropic murine leukemia virus (4070A envelope)); assay: ELISA on plate-bound MLV, dilution factor 50, Exp073-DTV Plate 1
[16] = molecular target: gp70 env protein of amphotropic MLV (4070A envelope), on purified viral particles (amphotropic murine leukemia virus (4070A envelope)); assay: ELISA on plate-bound MLV, dilution factor 6250, Exp074-DTV Plate 1
[17] = molecular target: gp70 env protein of amphotropic MLV (4070A envelope), on purified viral particles (amphotropic murine leukemia virus (4070A envelope)); assay: ELISA on plate-bound MLV, dilution factor 31250, inter-assay mean of six experiments
[18] = molecular target: gp70 env protein of amphotropic MLV (4070A envelope), on purified viral particles (amphotropic murine leukemia virus (4070A envelope)); assay: ELISA on plate-bound MLV, dilution factor 781250, inter-assay mean of six experiments
[19] = molecular target: gp70 env protein of amphotropic MLV (4070A envelope), on purified viral particles (amphotropic murine leukemia virus (4070A envelope)); assay: ELISA on plate-bound MLV, dilution factor 31250, Exp122-Ana Plate 2
[20] = molecular target: gp70 env protein of amphotropic MLV (4070A envelope), on purified viral particles (amphotropic murine leukemia virus (4070A envelope)); assay: ELISA on plate-bound MLV, dilution factor 250, Exp074-DTV Plate 1
[21] = molecular target: gp70 env protein of amphotropic MLV (4070A envelope), on purified viral particles (amphotropic murine leukemia virus (4070A envelope)); assay: ELISA on plate-bound MLV, dilution factor 781250, Exp072-DTV Plate 1
[22] = molecular target: gp70 env protein of amphotropic MLV (4070A envelope), on purified viral particles (amphotropic murine leukemia virus (4070A envelope)); assay: ELISA on plate-bound MLV, dilution factor 31250, Exp122-Ana Plate 1
[23] = molecular target: gp70 env protein of amphotropic MLV (4070A envelope), on purified viral particles (amphotropic murine leukemia virus (4070A envelope)); assay: ELISA on plate-bound MLV, dilution factor 156250, Exp125-Ana Plate 1
[24] = molecular target: gp70 env protein of amphotropic MLV (4070A envelope), on purified viral particles (amphotropic murine leukemia virus (4070A envelope)); assay: ELISA on plate-bound MLV, dilution factor 6250, Exp072-DTV Plate 1
[25] = molecular target: gp70 env protein of amphotropic MLV (4070A envelope), on purified viral particles (amphotropic murine leukemia virus (4070A envelope)); assay: ELISA on plate-bound MLV, dilution factor 10, Exp074-DTV Plate 2
[26] = molecular target: gp70 env protein of amphotropic MLV (4070A envelope), on purified viral particles (amphotropic murine leukemia virus (4070A envelope)); assay: ELISA on plate-bound MLV, dilution factor 1250, Exp073-DTV Plate 1

gp70 env protein of amphotropic MLV (4070A envelope), on purified viral particles (amphotropic murine leukemia virus (4070A envelope)), sequence (P21995 whole entry): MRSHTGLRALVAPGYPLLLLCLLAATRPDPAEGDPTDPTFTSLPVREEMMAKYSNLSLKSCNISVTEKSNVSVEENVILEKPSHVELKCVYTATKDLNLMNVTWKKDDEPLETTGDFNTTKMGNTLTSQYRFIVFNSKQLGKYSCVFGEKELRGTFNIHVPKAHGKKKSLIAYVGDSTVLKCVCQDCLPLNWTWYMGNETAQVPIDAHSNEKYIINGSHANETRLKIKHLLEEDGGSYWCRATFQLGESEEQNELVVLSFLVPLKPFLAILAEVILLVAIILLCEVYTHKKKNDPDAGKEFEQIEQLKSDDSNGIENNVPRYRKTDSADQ

## 83A25 monoclonal antibody (rat IgG2a, anti-gp70)
[1]
  Mean OD: 2.17 OD
[2]
  Mean OD: 2.43 OD
[3]
  Mean OD: 0.14 OD
[4]
  Mean OD (inter-assay mean): 2.09 OD
[5]
  Mean OD: 2.25 OD
[6]
  Mean OD: 0.162 OD
[7]
  Mean OD: 1.85 OD
[8]
  Mean OD: 1.75 OD
[9]
  Mean OD: 1.45 OD
[10]
  Mean OD: 1.7 OD
[11]
  Mean OD: 0.803 OD
[12]
  Mean OD: 1.61 OD
[13]
  Mean OD: 0.773 OD
[14]
  Mean OD: 0.119 OD
[15]
  Mean OD: 2.27 OD
[16]
  Mean OD: 0.636 OD
[17]
  Mean OD (inter-assay mean): 0.259 OD
[18]
  Mean OD (inter-assay mean): 0.118 OD
[19]
  Mean OD: 0.271 OD
[20]
  Mean OD: 1.92 OD
[21]
  Mean OD: 0.087 OD
[22]
  Mean OD: 0.289 OD
[23]
  Mean OD: 0.136 OD
[24]
  Mean OD: 0.558 OD
[25]
  Mean OD: 2.31 OD
[26]
  Mean OD: 1.78 OD

Reference: US20140178854A1
